Measurements published in patent US20210179728A1.
pKd: −log10 of the molar value. Values joined by “and” are separate entries in the source; they are usually repeats but may differ in a detail not shown here. Equal entries are not always repeated.

Assays:
[1] = molecular target: SIRPa on human monocytes (human) (UniProt P78324); test: flow cytometry on human monocytes v1/v1, PE anti-human Fc; MFI [B, panel B table]
[2] = molecular target: SIRPa on human monocytes (human) (UniProt P78324); test: flow cytometry on human monocytes v1/v1, PE anti-human Fc; percent of stained monocytes [B, panel A table]
[3] = molecular target: SIRPg on human CD3+ T cells (human) (UniProt Q9P1W8); test: flow cytometry on peripheral human CD3+ T cells; Exp 1 HV1 [B, table B]
SIRPg on human CD3+ T cells (human), sequence (Q9P1W8 29-387): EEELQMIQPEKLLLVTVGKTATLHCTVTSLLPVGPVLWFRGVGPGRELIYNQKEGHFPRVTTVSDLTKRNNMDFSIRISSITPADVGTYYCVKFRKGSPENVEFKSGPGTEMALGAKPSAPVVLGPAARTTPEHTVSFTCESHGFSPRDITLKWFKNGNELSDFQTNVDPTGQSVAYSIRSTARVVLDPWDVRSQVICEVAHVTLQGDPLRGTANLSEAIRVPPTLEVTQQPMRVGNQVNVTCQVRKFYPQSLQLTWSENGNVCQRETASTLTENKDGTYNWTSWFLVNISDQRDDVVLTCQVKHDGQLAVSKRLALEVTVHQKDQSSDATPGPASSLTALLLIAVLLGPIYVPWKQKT

[4] = molecular target: SIRPg on human CD3+ T cells (human) (UniProt Q9P1W8); test: flow cytometry on peripheral human CD3+ T cells; Exp 1 HV2 [B, table B]
[5] = molecular target: recombinant hSIRPa (Sino Biologicals, reference 11612-H08H) (human) (UniProt P78324); test: SPR (Biacore); SIRPa-His immobilized on CM5 chip, antibody injected
[6] = molecular target: recombinant hSIRPa (Sino Biologicals, reference 10975-H08H) (human) (UniProt P78324); test: ELISA on immobilized recombinant hSIRPa, anti-mouse Fc detection; given as ED50
[7] = molecular target: CD47 on human T cells, red blood cells and platelets (human) (UniProt Q08722); test: flow cytometry on peripheral human CD3+ T cells; Exp 1 HV1 [B, table B]
[8] = molecular target: CD47 on human T cells, red blood cells and platelets (human) (UniProt Q08722); test: flow cytometry on peripheral human CD3+ T cells; Exp 1 HV2 [B, table B]

With Kwar23 (antibody) the EC50 [1] was 0.378 µg/mL and the EC50 [2] was 0.26 µg/mL.
Ctrl Ab II (antibody) was tested, and the % of positive T-cells [3] was 0.45% and the % of positive T-cells [4] was 1.12%.
LSB2.20 (antibody) was tested, and the % of positive T-cells [3] was 91.4% and the % of positive T-cells [4] was 98.4%.
Substance SE7C2 (antibody) has a pKd [5] of 5.78, a koff [5] of 0.01 s⁻¹ and a kon [5] of 5980 M⁻¹ s⁻¹.
Work on Mouse isotype Ctrl (antibody) yielded a % of positive T-cells [4] of 0.016%.
For SE5A5 (antibody), the pKd [5] was 7.41, the koff [5] was 0.000949 s⁻¹ and the kon [5] was 24500 M⁻¹ s⁻¹. The % of positive T-cells [3] was 3.72%, the % of positive T-cells [4] was 7.69% and the EC50 [6] was 0.16 nM and 0.024 µg/mL.
SIRPa-fc (Fc fusion) gave a % of positive T-cells [7] of 72.2% and a % of positive T-cells [8] of 80.1%.
